In the experiment the target is SARS-CoV-2 spike protein receptor binding domain (isolated RBD) (SARS-CoV-2, UniProt P0DTC2 319-541).

As usually defined, the Kd is a measure of binding affinity in units of concentration. Low readings indicate higher affinity, high ones lower affinity. For orientation: koff means a measure of how fast the partners let go of each other. A low value points to slow dissociation. Usually kon stands for a measure of how fast the partners come together.

B1: IMPI-006 (antibody, V domains shown)
VH: QLQLQESGPGLVKPSETLSLTCTVSGGSISNSNYYWGWIRQPPGKGLEWIGSIYYSGRTYYNPSLKSRVTISVDTSKNQFSLKLSSVTAADTAVYYCARMGLLWFGEFYGMDVWGQGTTVTVSS
VL: DIQMTQSPSSLSASVGDRVTITCRASQGISSWLAWYQQKPEKAPKSLIYDASSLQRGVPSRFSGSGSGTDFTLTISSLQPEDFASYYCQQYNSYPLTFGGGTRVEIK
The molecule B1 registered a dissociation constant (Kd) of 0.88 nM, a koff of 8.19 s⁻¹ and an on-rate (kon) of 9.3e+09 M⁻¹ s⁻¹.

B2: IMPI-029 (antibody, V domains shown)
VH: EVQLVESGGGLIQPGGSLRLSCAASGVTVSSNYMNWVRQAPGKGLEWVSVIYSGGSTYYADSVKGRFTISRDNSKNTLFLQMNSLRAEDSAVYYCARDLGPYGVDVWGQGTTVTVSS
VL: DIQLTQSPSFLSASVGDRVTITCWASQGISSYLAWYQQKPGKAPKLLIYAASTLQSGVPSRFSGSGSGTEFTLTISSLQPEDFATYYCQELNSYPLTFGQGTRLEIK
B2 returned a Kd of 0.195 nM, a koff of 0.000157 s⁻¹ and a kon of 808000 M⁻¹ s⁻¹.

B3: IMPI-047 (antibody, V domains shown)
VH: EVQLVESGGGLIQPGGSLRLSCAASGFTVSSNYMNWVRQAPGKGLEWVSVIYSGGSTYYADSVKGRFTISRDNSKNTLYLQMNSLRTEDTAVYYCARDLVAYGMDVWGQGTTVTVSS
VL: DIQLTQSPSFLSASVGDRVTITCWASQGISSYLAWYQQKPGKAPKVLIYAASTLQSGVPSRFSGSGSGTEFTLTISSLQPEDFATYYCQLLNSNPLTFGGGTKVEIK
The molecule B3 returned a Kd of 2.38 nM, a koff of 0.000878 s⁻¹ and an association rate constant (kon) of 368000 M⁻¹ s⁻¹.

B4: IMPI-060 (antibody, V domains shown)
VH: EVQLVESGGGLIQPGGSLRLSCAASGVTVSSNYMSWVRQAPGKGLEWVSVIYSGGSTFYADSVKGRFTISRDNSKNTLYLQMNSLRAEDTAVYYCARDLSYYGMDVWGQGTTVTVSS
VL: DIQLTQSPSFLSASVGDRVTITCWASQGISSYLAWYQQKPGKAPKLLIYAASTLQSGVPSKFSGSGSGTEFTLTISSLQPEDFATYYCQQLNSYPSSFGQGTKLEIK
Molecule B4 returned a dissociation constant (Kd) of 59.2 nM, a dissociation rate constant (koff) of 0.0277 s⁻¹ and a kon of 469000 M⁻¹ s⁻¹.

B5: IMPI-005 (antibody, V domains shown)
VH: EVQLVESGGGLIQPGGSLRLSCAASGFTVSSNYMNWVRQAPGKGLEWVSVIYSGGSTYYADSVKGRFTISRDNSKNTLFLQMNSLRAEDSAVYYCARDLGPYGVDVWGQGTTVTVSS
VL: DIQLTQSPSFLSASVGDRVTITCWASQGISSYLAWYQQKPGKAPKLLIYAASTLQSGVPSRFSGSGSGTEFTLTISSLQPEDFATYYCQELNSYPLTFGQGTRLEIK
The molecule B5 gave a Kd of 3.09 nM, an off-rate (koff) of 0.0071 s⁻¹ and a kon of 2.3e+06 M⁻¹ s⁻¹.

B6: IMPI-021 (antibody, V domains shown)
VH: EVQLVESGGGLIQPGGSLRLSCAASGVTVSSNYMSWVRQAPGKGLEWVSVIYSGGSTFYADSVKGRFTISRDNSKNTLYLQMNSLRAEDTAVYYCARDLSYYGMDVWGQGTTVTVSS
VL: DIQLTQSPSFLSASVGDRVTITCWASQGISSYLAWYQQKPGKAPKLLIYAASTLQSGVPSKFSGSGSGTEFTLTISSLQPEDFATYYCQQLNSYPCSFGQGTKLEIK
In turn, B6 displayed a dissociation constant (Kd) of 8.08 nM, a koff of 0.00443 s⁻¹ and an on-rate constant (kon) of 548000 M⁻¹ s⁻¹.

B7: IMPI-056 (antibody, V domains shown)
VH: EVQLVESGGGLIQPGGSLRLSCAASGLTVSSNYMNWVRQAPGKKLEWVSVIYSGGSTFYADSVRGRFTISRDNSKNTLFLQMNSLRAEDSAVYYCARDLGPYGVDVWGQGTTVTVSS
VL: DIQLTQSPSFLSASVGDRVTITCWASQGISSYLAWYQQKPGKAPKLLIYAASTLQSGVPSRFSGSGSGTEFTLTISSLQPEDFATYYCQQLNSYPLTFGQGTRLEIK
The molecule B7 gave a dissociation constant (Kd) of 0.44 nM. In other words, the sub-nanomolar range.
